Laboratory results as given in patent publication US20200071671A1.

Target: hCCNT1-C261Y (human) (UniProt O60563)
Assay: cell-based or functional assay

Sequence of UniProt O60563 (O60563 whole entry C261Y): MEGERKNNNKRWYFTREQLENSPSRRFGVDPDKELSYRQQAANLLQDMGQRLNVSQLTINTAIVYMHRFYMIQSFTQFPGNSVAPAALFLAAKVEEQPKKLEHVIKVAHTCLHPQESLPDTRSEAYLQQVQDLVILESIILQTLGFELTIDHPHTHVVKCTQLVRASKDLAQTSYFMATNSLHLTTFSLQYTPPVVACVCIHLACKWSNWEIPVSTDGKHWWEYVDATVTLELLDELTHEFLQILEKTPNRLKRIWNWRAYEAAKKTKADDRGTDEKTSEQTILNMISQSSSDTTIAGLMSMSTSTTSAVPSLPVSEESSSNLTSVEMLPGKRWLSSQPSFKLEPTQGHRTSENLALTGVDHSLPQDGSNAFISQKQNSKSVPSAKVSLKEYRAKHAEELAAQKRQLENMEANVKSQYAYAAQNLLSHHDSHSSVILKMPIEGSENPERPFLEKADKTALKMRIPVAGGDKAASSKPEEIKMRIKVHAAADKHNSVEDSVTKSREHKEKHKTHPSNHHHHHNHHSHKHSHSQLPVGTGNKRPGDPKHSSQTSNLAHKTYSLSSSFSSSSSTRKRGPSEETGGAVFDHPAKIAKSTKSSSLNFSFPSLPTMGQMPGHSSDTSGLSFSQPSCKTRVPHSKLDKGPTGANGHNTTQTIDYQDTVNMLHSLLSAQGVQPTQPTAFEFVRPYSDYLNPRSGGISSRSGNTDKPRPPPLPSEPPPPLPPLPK

For HIV-1 Tat protein, the fold decrease in Tat-dependent GFP expression, dual-colour single-round HIV-1 reporter virus, hCCNT1-C261Y Jurkat cells against wild-type parental cells was > 16 fold.
